The DeepSol protein solubility set

Assay: soluble on expression in E. coli; label from the status in PepcDB or PDB records

Row | Sequence | soluble on expression in E. coli
1 | MGSDKIHHHHHHVENWDEVRTAYQVARLGTVSGAADVLGVHHATVIRHIDAIEARLGVKLFQRHARGYTATEAGLDLLRVAQATDDQFSQLVGRLKGQGDEVSGELVVTSLSSMAPMLAPALAEFQQLHPDLVIRYLTGDRLFRLEYGEAHVALRAGAAPEQPDNVVQPFVAQRLALYASREYVERHGMLKGQDDMVNHRFIASDNENTRAPFERWLRSTIPAENIVFRCSDAVAGHQAIRAGAGIGFVSLWEAASSPDLVMMMDPHDEWSGKIWLVTHVDLHRTNKVQSFVRFLKEHAKSWPQ | not soluble
2 | MAAATGGLTPEQIIAVDGAHLWHPYSSIGREAVSPVVAVAAHGAWLTLIRDGQPIEVLDAMSSWWTAIHGHGHPALDQALTTQLRVMNHVMFGGLTHEPAARLAKLLVDITPAGLDTVFFSDSGSVSVEVAAKMALQYWRGRGLPGKRRLMTWRGGYHGDTFLAMSICDPHGGMHSLWTDVLAAQVFAPQVPRDYDPAYSAAFEAQLAQHAGELAAVVVEPVVQGAGGMRFHDPRYLHDLRDICRRYEVLLIFDEIATGFGRTGALFAADHAGVSPDIMCVGKALTGGYLSLAATLCTADVAHTISAGAAGALMRGPTFMANPLACAVSVASVELLLGQDWRTRITELAAGLTAGLDTARALPAVTDVRVCGAIGVIECDRPVDLAVATPAALDRGVWLRPFRNLVYAMPPYICTPAEITQITSAMVEVARLVGSLP | soluble
3 | MPQQTQTSAEKRCMVTKRIMLKLPDISAASLIPASIEASPAQVLGPASLAGIFPRGVRVYLTDTGAASQEKLVDAATHLRNLGYEPVPHLAARRIPSRVEFEEQVKRLAGEADVTDVLVVGGGVDRPAGPFASSMDMLSSGIFDRYGIKKIAIAGHPEGSPDFSEETAIAALRLKRDFGERSDAAMRIVTQFGFDPARFIAWAEGLAASGIDLPVHIGVSGPAKITTLLKYAALCGVGNSIAYLKKNALSLTTLARGHSPDSIVGPIERHWQANPQGPIRQIHVFPFGGLQNSADWLVSRGSWQTRDAGRPAPADSMAG | not soluble
4 | MGSDKIHHHHHHMSLITDLPAIFDQFSEARQKGFLTVMDLKEQNVPLVGTYCTFMPQEIAMAAGAVVVSLCSTSDETIEEAEKDLPRNLCPLIKSSYGFGKTDKCPYFYFSDLVVGETTCDGKKKMYEYMAEFKAVHVMQLPNSASDAASRALWKTEILRLQQVIEARFGTPISEAALREAIVLKNRERRALAHFYRLGQLNPPALSGGDILKVVYGATFRFDKTALIDELHAMAERIHQEWQQGKRLEPRPRILITGCPIGGAAEKVVRAIEENGGWVVGYENCTGAKATERCVAEEGDVYDALTDKYLAIGCSCISPNDQRLQLLSQMVEEYQADGVIDVILQACHTYAVESLAIKRHLRQQHDLPYMAIETDYSTADLGQLSTRVAAFIEML | not soluble
5 | MSKLIEYDETARRAMEVGMDKLADTVRVTLGPRGRHVVLAKAFGGPTVTNDGVTVAREIELEDPFEDLGAQLVKSVATKTNDVAGDGTTTATILAQALIKGGLRLVAAGVNPIALGVGIGKAADAVSEALLASATPVSGKTGIAQVATVSSRDEQIGDLVGEAMSKVGHDGVVSVEESSTLGTELEFTEGIGFDKGFLSAYFVTDFDNQQAVLEDALILLHQDKISSLPDLLPLLEKVAGTGKPLLIVAEDVEGEALATLVVNAIRKTLKAVAVKGPYFGDRRKAFLEDLAVVTGGQVVNPDAGMVLREVGLEVLGSARRVVVSKDDTVIVDGGGTAEAVANRAKHLRAEIDKSDSDWDREKLGERLAKLAGGVAVIKVGAATETALKERKESVEDAVAAAKAAVEEGIVPGGGASLIHQARKALTELRASLTGDEVLGVDVFSEALAAPLFWIAANAGLDGSVVVNKVSELPAGHGLNVNTLSYGDLAADGVIDPVKVTRSAVLNASSVARMVLTTETVVVDKPAKAEDHDHHHGHAH | soluble
6 | LSECKTGNGKNYRGTMSKTKNGITCQKWSSTSPHRPRFSPATHPSEGLEENYCRNPDNDPQGPWCYTTDPEKRYDYCDILECEEECMH | soluble
7 | MGSDKIHHHHHHMSSNALYTDLSGYYDLMCSDINYQQQSASIHRLHQFLGNNGKQHLDLACGTGPHVRHFIDLGYQCSGLDINQPMLDMAMRRCPEAQFNLQDMTAFYLEERVDLITCFLYSIHYSACIERLKSCIASVHSALNDGGLFCFNTVDKHRIDNTASVKHFAEFDGSHFAFESGWHYSGQGEKQSLKLSIAKSRLPFTEVSASPLPVSDMKGLGSLEAGLHAAGLQEVGLQELHSIEQWQDQHAMVATSFTELQELLAPYFEVHVFEHDYERIVPWDLASGNALFVCVKI | not soluble
8 | TLFDKIWDAHVVTTVEDGPTQLYIDRLYCHEVTSPQAFAGLRERGIKVLRPEKVFCMPDHNTPTHDQDKPIEDPISKTQVDTLTKNAKDFGLTHFGMMHPKNGIIHVVGPERALTLPGMTIVCGDSHTSTHGAMGAIAFGIGTSEVEMVLASQCILQSRPKT | not soluble
9 | SDAMDKRLKIATIGGGSSYTPELVEGLIKRYHELPVGELWLVDIPEGKEKLEIVGALAKRMVEKAGVPIEIHLTLDRRRALDGADFVTTQFRVGGLEARAKDERIPLKYGVIGQETNGPGGLFKGLRTIPVILDIIRDMEELCPDAWLINFTNPAGMVTEAVLRYTKQEKVVGLCNVPIGMRMGVAKLLGVDADRVHIDFAGLNHMVFGLHVYLDGVEVTEKVIDLVAHPDRSGVTMKNIVDLGWEPDFLKGLKVLPCPYHRYYFQTDKMLAEELEAAKTKGTRAEVVQQLEKELFELYKDPNLAIKPPQLEKRGGAYYSDAACSLISSIYNDKRDIQPVNTRNNGAIASISAESAVEVNCVITKDGPKPIAVGDLPVAVRGLVQQIKSFERVAAEAAVTGDYQTALVAMTINPLVPSDTIAKQILDEMLEAHKEYLPQFFKQAKATAGN | soluble
10 | SQIPLCANLVPVPITNATLDRITGKWFYIASAFRNEEYNKSVQEIQATFFYFTPNKTEDTIFLREYQTRQNQCFYNSSYLNVQRENGTVSRYEGGREHVAHLLFLRDTKTLMFGSYLDDEKNWGLSFYADKPETTKEQLGEFYEALDCLCIPRSDVMYTDWKKDKCEPLEKQHEKERKQEEGES | soluble
11 | MTDNLLSISAACLFDDQGNLLLVRKRGTQAFMLPGGKREPGETPLAALQRELLEELRLPMGASTFEHLGSFQAPAANEANTRVDADIYVARLPHAVCAQAELEELAWLVPGQAQPDNLAPLLRDHVLPALARRAAENPETQAEHRTRPDHVR | not soluble
12 | MTKIRQKSRKPGRTSRAKPVVAVVWYEDEQEWRAMRDLADDPERFEDSYEAWLTMFDRSLERLREGGAFPVRTPCNATKYREWCESKARSFDACSRSEYAAREFQARATQDE | not soluble
13 | MPEGILPIERDLLRFKEIVRGEVKKRVREFLTREELFGQVEGRLVSIPLPQLEIPKIVHGEPLGEGLGLGGPGEEALGPGGHIPVAELELEEFLDLVGEALRLPRLRPKGEGEVTEEALRHTTIARKGPRGLRHVRRTLKESLKRALQSGEYRPEDPLLVPEREDLRYKAPRRKPIPHAQAVVLFALDVSGSMREEELKLVKTLSFWITLWIKRHFPRLERRYLLHDAEAWEVPEEEFFKAREGGGTRISSALLLAEEILKAYPEAFYNRYLFHFSDGENWQGDTPLALEALRRLLPSLALYGYAQVESPYGQGHFLEEVQEALGGREGVALAAVRGREDLPVALKRLLGG | soluble
14 | MYIILVYDIGEKRVGKMLKLCRKYLNWIQNSVFEGEISEVKLLELKSRAAGIMEKEEDSLIIFSSRQERWLEKEIIGKERSATDIFL | not soluble
15 | MLTVALLALLCASASGNAIQARSSSYSGEYGSGGGKRFSHSGNQLDGPITALRVRVNTYYIVGLQVRYGKVWSDYVGGRNGDLEEIFLHPGESVIQVSGKYKWYLKKLVFVTDKGRYLSFGKDSGTSFNAVPLHPNTVLRFISGRSGSLIDAIGLHWDVYPTSCSRC | soluble
16 | MRNKPFYLLCAFLWLAVSHALAADSTITIRGYVRDNGCSVAAESTNFTVDLMENAAKQFNNIGATTPVVPFRILLSPCGNAVSAVKVGFTGVADSHNANLLALENTVSAASGLGIQLLNEQQNQIPLNAPSSAISWTTLTPGKPNTLNFYARLMATQVPVTAGHINATATFTLEYQ | not soluble
